Consider 6 molecules from patent US8399204B2, “Method for screening of substance which alter GPR120-mediated cell-stimulating activities” (Eisai R&D Management Co., Ltd., priority 2005, dated 2013).

Numbering of substitutions follows the chain as printed.

One experiment concerns the target T1, mouse GPR120 (Mus musculus, UniProt Q7TMA4).
T1 construct: expressed in transfected cells; host or cells: SE302 cells (HEK293 clone carrying a CRE-PLAP reporter), transduced with retrovirus from pBabeCL(mGPR120)IH and selected with hygromycin
T1 sequence (Q7TMA4 1-361): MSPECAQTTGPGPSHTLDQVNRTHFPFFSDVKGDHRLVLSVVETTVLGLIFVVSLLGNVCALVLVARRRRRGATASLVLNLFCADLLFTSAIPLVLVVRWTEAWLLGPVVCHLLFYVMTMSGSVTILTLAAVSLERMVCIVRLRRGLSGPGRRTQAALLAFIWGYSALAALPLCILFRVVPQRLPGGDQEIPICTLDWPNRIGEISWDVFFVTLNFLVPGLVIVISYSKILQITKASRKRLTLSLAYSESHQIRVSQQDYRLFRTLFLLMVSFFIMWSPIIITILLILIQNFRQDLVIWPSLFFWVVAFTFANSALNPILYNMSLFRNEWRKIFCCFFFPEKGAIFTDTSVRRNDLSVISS
Description: PLAP reporter transcription activity in mGPR120-SE302 cells (CRE-PLAP reporter). The settings on record: HEK293-derived SE302 cells expressing mouse GPR120; forskolin 1.0 μM plus sample, 24 hours; chemiluminescence of supernatant; compared to control cells (GFP-SE302). The format is cell-based. The method, then: (§1) Using a retrovirus vector plasmid pBabeCLcre4vPdNN capable of inducing a reporter PLAP gene by a cyclic AMP responsive element sequence, a retrovirus vector was prepared according to the method described in Example 4. The retrovirus vector prepared was introduced into HEK293 cells and cells were cloned by a limiting dilution method.
(§2) The SE302 cells constructed in Example 5 were seeded onto a collagen coated 6 well plate (Asahi Technoglass, Co.) at 1.2×10^5 cells per well. Cells were cultured with 2 mL/well of DMEM medium (Sigma, Co.) (containing 10% FBS, penicillin 100 units/mL and streptomycin 100 μg/mL). On the following day, solutions of the virus vector containing GPR120 or mGPR120 obtained in Example 4, and polybrene (also called hexadimethrine bromide, Sigma, Co.) at a final concentration of 8 μg/mL were added to SE302 cells. Cells were cultured with the medium containing 500 μg/mL of hygromycin (Invitrogen, Co.) and cells grown under this condition were used for experiments as SE302 cells introduced with GPR120 gene, and SE302 cells introduced with mGPR120 gene (referred to as “GPR120-SE302 cells” and “mGPR120-SE302 cells”, respectively hereinafter).
The aforementioned GPR120-SE302 cells or mGPR120-SE302 cells constructed in Example 6 were suspended in the culture medium for measurement of transcription activity (DMEM containing FBS which was heat-treated at 65° C. for 30 min at a final concentration of 10%) and seeded onto a 96 well plate (Becton Dickinson, Co.) at 1×10^4 cells/well. In addition, as control cells, SE302 cells expressing green fluorescent protein (GFP, Invitrogen, Co.) (referred to as “GFP-SE302 cells” hereinafter) were used. Specifically, GFP-302 cells were prepared by obtaining a virus for expressing GFP using the method shown in Example 3 and 4, and transfecting SE302 cells with the virus using the method shown in Example 6. Cells were cultured for 24 hours after seeding, and forskolin prepared at a final concentration of 1.0 μM and a sample were added. Cells were cultured for another 24 hours and 5 μL of the cell supernatant was recovered and transferred to a polypropylene 384-well white plate (Nalge Nunc International, Co.). Then, 20 μL of the assay buffer (280 mmol/L Na2CO3—NaHCO3, 8 mmol/L MgSO4, pH 10) and 25 μL of Lumiphos530 (Lumigen, Co.) were added. Following a 2-hour reaction at room temperature, chemiluminescence in each well was measured using a Fusion plate reader (Perkin Elmer, Co.) and was defined as the transcription activity. Based on these measured values, stimulation/inhibition of transcription activity was calculated using the equation (I) shown below and described as [% of control]. Activities of the group with a sample added were calculated using the value of control placed on each plate. [% of control]=(X−C)/(F−C)×100 (I) Herein, in the above equation: • X: PLAP transcription activity in the group added with a sample, • F: Mean value of transcription activities in 2 wells of a positive control (no sample added, stimulated with forskolin), • C: Mean value of transcription activities in 2 wells of a negative control (no sample added, not stimulated with forskolin).

Another experiment has as its target T2, human GPR120 (Homo sapiens, UniProt Q5NUL3).
T2 construct: open reading frame which starts with ATG of the nucleotide number 1-3 and ends with TAA of the nucleotide number 1084-1086; expressed in transfected cells; host or cells: SE302 cells (HEK293 clone carrying a CRE-PLAP reporter), transduced with retrovirus from pBabeCL(GPR120)IH and selected with hygromycin
T2 sequence (Q5NUL3 1-361): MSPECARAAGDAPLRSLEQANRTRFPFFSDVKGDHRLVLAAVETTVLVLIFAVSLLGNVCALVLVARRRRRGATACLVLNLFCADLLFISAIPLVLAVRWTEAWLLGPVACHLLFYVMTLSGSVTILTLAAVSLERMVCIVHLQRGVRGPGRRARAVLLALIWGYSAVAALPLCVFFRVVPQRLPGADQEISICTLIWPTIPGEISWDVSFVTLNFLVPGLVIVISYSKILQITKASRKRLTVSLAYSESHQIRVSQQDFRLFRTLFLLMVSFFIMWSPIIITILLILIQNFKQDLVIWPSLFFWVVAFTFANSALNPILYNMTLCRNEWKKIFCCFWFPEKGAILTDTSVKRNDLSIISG
Description: PLAP reporter transcription activity in GPR120-SE302 cells (CRE-PLAP reporter). Type of experiment: cell-based. The following applies: HEK293-derived SE302 cells expressing human GPR120; forskolin 1.0 μM plus sample, 24 hours; chemiluminescence of supernatant; compared to control cells (GFP-SE302). The method, then: as §1, §2
The aforementioned GPR120-SE302 cells or mGPR120-SE302 cells constructed in Example 6 were suspended in the culture medium for measurement of transcription activity (DMEM containing FBS which was heat-treated at 65° C. for 30 min at a final concentration of 10%) and seeded onto a 96 well plate (Becton Dickinson, Co.) at 1×10^4 cells/well. In addition, as control cells, SE302 cells expressing green fluorescent protein (GFP, Invitrogen, Co.) (referred to as “GFP-SE302 cells” hereinafter) were used. Specifically, GFP-302 cells were prepared by obtaining a virus for expressing GFP using the method shown in Example 3 and 4, and transfecting SE302 cells with the virus using the method shown in Example 6. Cells were cultured for 24 hours after seeding, and forskolin prepared at a final concentration of 1.0 μM and a sample were added. Cells were cultured for another 24 hours and 5 μL of the cell supernatant was recovered and transferred to a polypropylene 384-well white plate (Nalge Nunc International, Co.). Then, 20 μL of the assay buffer (280 mmol/L Na2CO3—NaHCO3, 8 mmol/L MgSO4, pH 10) and 25 μL of Lumiphos530 (Lumigen, Co.) were added. Following a 2-hour reaction at room temperature, chemiluminescence in each well was measured using a Fusion plate reader (Perkin Elmer, Co.) and was defined as the transcription activity. Based on these measured values, stimulation/inhibition of transcription activity was calculated using the equation (I) shown below and described as [% of control]. Activities of the group with a sample added were calculated using the value of control placed on each plate. […]

In the case of “porcine pancreatic sPLA2: commercially-available (Sigma) porcine pancreatic sPLA2, reported to be mainly Group IB sPLA2 (Swiss Prot P00592)”, the “PLAP activity in mGPR120-SE302 cells” value in the experiment with mouse GPR120 is “concentration dependent elevation of PLAP activity”. Further, the “PLAP activity in GPR120-SE302 cells” value in the experiment with human GPR120 was “concentration dependent elevation of PLAP activity”.

B1: recombinant hGX-sPLA2: C-terminal FLAG-tagged human GX-sPLA2 (SEQ ID NO 43) produced in silkworm pupae, purified (protein, listed as Homo sapiens)
chain: MGPLPVCLPIMLLLLLPSLLLLLLLPGPGSGEASRILRVHRRGILELAGTVGCVGPRTPIAYMKYGCFCGLGGHGQPRDAIDWCCHGHDCCYTRAEEAGCSPKTERYSWQCVNQSVLCGPAENKCQELLCKCDQEIANCLAQTEYNLKYLFYPQFLCEPDSPKCDDYKDDDDK
modifications: C-terminal FLAG tag
For B1, the “PLAP activity in mGPR120-SE302 cells” value with mouse GPR120 is “concentration dependent elevation of PLAP activity”. Besides, the “PLAP activity in GPR120-SE302 cells” value with human GPR120 is given as “concentration dependent elevation of PLAP activity”.

B2: GX-sPLA2: rat Group X secretory phospholipase A2 (SEQ ID NO 23) purified from rat intestinal tract and testis extracts (protein, listed as Rattus norvegicus)
chain: GLLELAGTLDCVGPRSPMAYMNYGCYCGLGGHGEPRDAIDWCCYYHDCCYSQAQDAGCSPKLYRYPWKCMDHRILCGPAENKCQELLCRCDETLAYCLADTEYHLKYLFFPSVLCEKDSPKCN
As for B2, the “PLAP activity in GPR120-SE302 cells” value in the experiment with human GPR120 was “elevate PLAP activity specifically in GPR120-SE302 cells”.

B3: mGX-sPLA2-His: purified mouse C-terminal His-tagged GX-sPLA2 from baculovirus-infected Sf9 cells (protein, UniProt Q9QXX3 29-151, looked up)
Group 10 secretory …: B2 chain with Y45H, Q52R, Y63D, R73H, T93E, D100G, V113I
modifications: C-terminal His6 tag
notes: purified mouse C-terminal His-tagged GX-sPLA2 from baculovirus-infected Sf9 cells
In the case of B3, in the experiment with mouse GPR120, the “PLAP activity in mGPR120-SE302 cells” value is on record as “concentration dependent elevation of PLAP activity”.

B4: hGX-sPLA2-His: purified human C-terminal His-tagged GX-sPLA2 from baculovirus-infected Sf9 cells (protein, UniProt O15496 43-165, looked up)
Group 10 secretory …: GILELAGTVGCVGPRTPIAYMKYGCFCGLGGHGQPRDAIDWCCHGHDCCYTRAEEAGCSPKTERYSWQCVNQSVLCGPAENKCQELLCKCDQEIANCLAQTEYNLKYLFYPQFLCEPDSPKCD
modifications: C-terminal His6 tag
notes: purified human C-terminal His-tagged GX-sPLA2 from baculovirus-infected Sf9 cells
As for B4, the “PLAP activity in mGPR120-SE302 cells” value with mouse GPR120 is “concentration dependent elevation of PLAP activity”.

B5: recombinant mGX-sPLA2: C-terminal FLAG-tagged mouse GX-sPLA2 (SEQ ID NO 45) from baculovirus-infected Sf-9 cells, purified (protein, listed as Mus musculus)
chain: MLLLLLLLLLGPGPGFSEATRRSHVYKRGLLELAGTLDCVGPRSPMAYMNYGCYCGLGGHGEPRDAIDWCCYHHDCCYSRAQDAGCSPKLDRYPWKCMDHHILCGPAENKCQELLCRCDEELAYCLAGTEYHLKYLFFPSILCEKDSPKCNDYKDDDDK
modifications: C-terminal FLAG tag
B5: in the experiment with mouse GPR120, the “PLAP activity in mGPR120-SE302 cells” value is listed as “concentration dependent elevation of PLAP activity”. Moreover, the “PLAP activity in GPR120-SE302 cells” value with human GPR120 is reported as “concentration dependent elevation of PLAP activity”.
